Source: patent US20180208675A1 (Novo Nordisk, published 2018)

Legend:
[1] = biological target: T1, human TFPI alpha (full-length TFPIα) (human, UniProt P10646 29-304); assay: cell-based or functional assay
[2] = biological target: T1, human TFPI alpha (full-length TFPIα); assay: SPR (Biacore T200), Fab captured on Human Fab Binder, TFPIα in solution, 1:1 fit
Description: Binding interaction analysis was obtained by Surface Plasmon Resonance in a Biacore T200 instrument. Human Fab Binder (Human Fab Capture Kit, GE Healthcare) was immobilized to a series S CM4 sensor chip (GE Healthcare) in flow-cells 1-4 at 10000 response units (RU) using the amine coupling protocol available within the Biacore T-200 control software (GE Healthcare) and the reagents provided with the Amine Coupling Kit (GE Healthcare).The relevant Fab fragment or Fab-Fab conjugate was captured in flow-cell 2, 3 or 4 at a fixed concentration. Different concentrations of TFPI were tested by diluting TFPI in the running buffer (10 mM Hepes, pH 7.4, 300 mM NaCl, 5 mM CaCl₂, 0.05% Surfactant P20, 1 mg/ml BSA). Each sample was assayed using 300 seconds of contact time followed by 600 seconds of dissociation time at 50 μl/min flow rate. A buffer blank was also assayed. The sensor surface was regenerated with 10 mM Glycine pH 2.1 with two cycles each of 30 seconds at 50 μl/min flow rate.
Biacore T200 Evaluation software was used to analyse the data. Determination of binding constants (kₒₙ, koff, KD) was obtained assuming a 1:1 interaction of TFPI and the Fab variant or Fab-Fab conjugate of interest.

[3] = biological target: T1, human TFPI alpha (full-length TFPIα); assay: cell-based or functional assay; remark: listed apart in the source
[4] = biological target: endogenous TFPI of normal human plasma (human, UniProt P10646 29-304, limits assumed); assay: cell-based or functional assay

Row | Binder | lag time (min), 200 nM mAb (2 x 100 nM), FVIII-neutralised plasma + 20 nM TFPIα [1] [min] | thrombin peak (nM), 200 nM mAb (2 x 100 nM), FVIII-neutralised plasma + 20 nM TFPIα [1] [nM] | ttPeak (min), 200 nM mAb (2 x 100 nM), FVIII-neutralised plasma + 20 nM TFPIα [1] [min] | Kd [2] [nM] | koff [2] [s⁻¹] | kon [2] [M⁻¹ s⁻¹] | thrombin peak (nM) at 6.25 nM, FVIII-neutralised plasma + 2 nM TFPIα [3] [nM] | thrombin peak (nM) at 12.5 nM, FVIII-neutralised plasma + 2 nM TFPIα [3] [nM] | thrombin peak (nM) at 25.0 nM, FVIII-neutralised plasma + 2 nM TFPIα [3] [nM] | thrombin peak (nM) at 50.0 nM, FVIII-neutralised plasma + 2 nM TFPIα [3] [nM] | thrombin peak (nM) at 100 nM, FVIII-neutralised plasma + 2 nM TFPIα [3] [nM] | thrombin peak (nM) at 6.25 nM, FVIII-neutralised plasma, endogenous TFPI [4] [nM] | thrombin peak (nM) at 12.5 nM, FVIII-neutralised plasma, endogenous TFPI [4] [nM] | thrombin peak (nM) at 25.0 nM, FVIII-neutralised plasma, endogenous TFPI [4] [nM] | thrombin peak (nM) at 50.0 nM, FVIII-neutralised plasma, endogenous TFPI [4] [nM] | thrombin peak (nM) at 100 nM, FVIII-neutralised plasma, endogenous TFPI [4] [nM]
1 | mAb 4F110 (antibody, human IgG4 S228P, kappa, V domains shown) VH: QVQLQQSGAELVKPGASVKLSCKASGYTFISYYMYWVKQRPGQGLEWIGEINPSNGDTNLNEKFKSKATLTVDKSSSTVYMQLSSLTSEDSAVYYCTRWDRFDGFVYWGQGTLVTVSA VL: ETTVTQSPASLSMAIGGKVTIRCIISTNIDDDINWYQQKPGEPPKLLISEGNTLRPGVPSRFSSSGYGTDFVFTIENMLSEDVADYYCLQSDDLPYTFGGGTKLEIKR | 0 | 0 | 0 | – | – | – | – | – | – | – | – | – | – | – | – | –
2 | Fab 0089 (Fab fragment of mAb 4F110) (Fab, V domains shown, Chimeric mouse/human Fab; HC truncated after the hinge cysteine; KPI-3 specific) VH: QVQLQQSGAELVKPGASVKLSCKASGYTFISYYMYWVKQRPGQGLEWIGEINPSNGDTNLNEKFKSKATLTVDKSSSTVYMQLSSLTSEDSAVYYCTRWDRFDGFVYWGQGTLVTVSA VL: ETTVTQSPASLSMAIGGKVTIRCIISTNIDDDINWYQQKPGEPPKLLISEGNTLRPGVPSRFSSSGYGTDFVFTIENMLSEDVADYYCLQSDDLPYTFGGGTKLEIKR | – | – | – | 0.11 | 0.00057 | 5e+06 | – | – | – | – | – | – | – | – | – | –
3 | mAb 2021 (antibody, human IgG4 S228P, kappa, V domains shown) VH: EVQLVESGGGLVKPGGSLRLSCAASGFTFSNYAMSWVRQTPEKRLEWVATISRSGSYSYFPDSVQGRFTISRDNAKNSLYLQMNSLRAEDTAVYYCARLGGYDEGDAMDSWGQGTTVTVSS VL: DIVMTQTPLSLSVTPGQPASISCKSSQSLLESDGKTYLNWYLQKPGQSPQLLIYLVSILDSGVPDRFSGSGSGTDFTLKISRVEAEDVGVYYCLQATHFPQTFGGGTKVEIKR | – | – | – | – | – | – | 48.9 | 61.7 | 68.4 | 73.4 | 58.6 | 113 | 114 | 116 | 118 | 118
4 | Fab 0094 (Fab fragment of mAb 2007) (Fab, V domains shown, KPI-2 specific) VH: EVQLVESGGGLVKPGGSLRLSCAASGFTFSNYAMSWVRQAPGKGLEWVSTISRSGSYSYYPDSVKGRFTISRDNAKNSLYLQMNSLRAEDTAVYYCARLGGYDEGDAMDSWGQGTTVTVSS VL: DIVMTQTPLSLSVTPGQPASISCKSSQSLLESDGKTYLNWYLQKPGQSPQLLIYLVSILDSGVPDRFSGSGSGTDFTLKISRVEAEDVGVYYCLQATHFPQTFGGGTKVEIKR | – | – | – | 4.4 | 0.00066 | 150000 | 5.9 | 10.6 | 14.3 | 18.9 | 20.3 | 35.9 | 45 | 60.2 | 73.9 | 74.1
5 | Fab 0095 (Fab fragment of mAb 2014) (Fab, V domains shown, KPI-2 specific) VH: EVQLVESGGGLVKPGGSLRLSCAASGFTFSNYAMSWVRQAPGKGLEWVSTISRSGSYSYYADSVKGRFTISRDNAKNSLYLQMNSLRAEDTAVYYCARLGGYDEGDAMDSWGQGTTVTVSS VL: DIVMTQTPLSLSVTPGQPASISCKSSQSLLESDGKTYLNWLLQRPGESPKLLIYLVSILDSGVPDRFSGSGSGTDFTLKISRVEAEDVGVYYCLQATHFPQTFGGGTKVEIKR | – | – | – | 0.78 | 0.003 | 3.9e+06 | 13.3 | 19.4 | 22.4 | 25.1 | 24.6 | 74.2 | 81.3 | 84.9 | 85.4 | 84.7
6 | Fab 0313 (Fab fragment of mAb 2000) (Fab, V domains shown, Fab of the initial grafted HzTFPI4F36; KPI-2 specific) VH: EVQLVESGGGLVKPGGSLRLSCAASGFTFSNYAMSWVRQAPGKGLEWVSTISRSGSYSYYADSVKGRFTISRDNAKNSLYLQMNSLRAEDTAVYYCARLGGYDEGDAMDSWGQGTTVTVSS VL: DIVMTQTPLSLSVTPGQPASISCKSSQSLLESDGKTYLNWYLQKPGQSPQLLIYLVSILDSGVPDRFSGSGSGTDFTLKISRVEAEDVGVYYCLQATHFPQTFGGGTKVEIKR | – | – | – | 42 | 0.0021 | 49000 | – | – | – | – | – | – | – | – | – | –
7 | Fab 0088 (Fab fragment of mAb 2021) (Fab, V domains shown, free C-terminal cysteine; KPI-2 specific) VH: EVQLVESGGGLVKPGGSLRLSCAASGFTFSNYAMSWVRQTPEKRLEWVATISRSGSYSYFPDSVQGRFTISRDNAKNSLYLQMNSLRAEDTAVYYCARLGGYDEGDAMDSWGQGTTVTVSS VL: DIVMTQTPLSLSVTPGQPASISCKSSQSLLESDGKTYLNWYLQKPGQSPQLLIYLVSILDSGVPDRFSGSGSGTDFTLKISRVEAEDVGVYYCLQATHFPQTFGGGTKVEIKR | – | – | – | 0.06 | 0.0001 | 1.7e+06 | 38.4 | 64.2 | 69.8 | 67.7 | 48.1 | 96.8 | 98.1 | 102 | 101 | 87.7
8 | mAb 2F35 (antibody, V domains shown) VH: EVQLQQSGAELVRPGALVKLSCKASGFNIKDYYIHWVKQRPEQGLEWIGWIDPENGNTIFDPKFQGRASITADTSSNTAYLQLSSLTSEDTAVYYCAGRWYAMDYWGQGTSVTVSS VL: not shown | 0 | 0 | 0 | – | – | – | – | – | – | – | – | – | – | – | – | –
9 | mAb 1F91 (antibody, V domains shown) VH: DVQLQESGPGLVKPSQSLSLTCTVSGYSITSDYAWNWIRQFPGNKLEWMGYISYSGSTSYNPSLKSRISITRDTSKNQFFLQLNSVTTEDTATYYCARWAYDGPWGQGTLVTVSA VL: QIVLSQSPALLSASPGEKVTMTCRASSSVSHMHWYQQKPGSSPKPWIYATSNLASGVPARFSGSGSGTSYSLTITRVEAEDAATYYCQQWSSNPFTFGSGTKLEIKR | 0 | 0 | 0 | – | – | – | – | – | – | – | – | – | – | – | – | –
10 | mAb 2F3 (antibody, V domains shown) VH: QVQLKQSGPGLVQPSQSLSITCTVSGFSLSSYGVHWVRQSPGKGLEWLGVIWRGGSTDFNAAFMSRVSFTKDNSKSQVFFKMNSLQADDTAIYYCAKNSHGNYVGYAMDYWGQGTSVTVSS VL: DIVMTQSQKFMSTTVGDKVSIPCKASENVGAAVAWYQQKPGQSPTLLIYSASNRYTGIPDRFTGSGSGTDFTLTIRTVQSEDLADYFCQQYTNYPTFGGGTKLEIKR | 5.8 | 20.9 | 14.6 | – | – | – | – | – | – | – | – | – | – | – | – | –
11 | mAb 2F22 (antibody, V domains shown) VH: QVQLKQSGPGLVQPSQSLSITCTVSGFSLTNYGVHWVRQSPGKGLEWLAVIWRGGSIDYNAAFMSRLSITKDNSKSQVFFKMNSLQADDTAIYYCAKNSHGNYVGYAMDYWGQGTSVTVSS VL: GIVMTQSQKFMSTTVGDRVSITCKASQSVGPAVAWYQQKPGQSPKLLIYSASNRYTGVPDRFTGSGSGADFTLTISNLHSEDLADYFCQQYTSYPTFGGGTKLEIKR | 5.1 | 23.7 | 13.6 | – | – | – | – | – | – | – | – | – | – | – | – | –
12 | mAb 2F45 (antibody, V domains shown) VH: QVQLKQSGPGLVQPSQSLSISCTVSGFSLTGYGVHWIRQSPGKGLEWLGVIWRGGSIDYNAAFMSRLSITKDNSKSQVFFKMNSLQADDTAIYYCAKNSHGNYVGYAMDYWGQGTSVTVSS VL: DIVMTQSQKFMSTTVGDRVSITCKASQNVGTAVAWYQQKPGQSPELLIYSASNRYTRVPDRFTGSGSGTDFTLTISNMQSEDLADYFCQQYTSYPTFGGGTKLEIKR | 9 | – | – | – | – | – | – | – | – | – | – | – | – | – | – | –
